Paper PMC7889167 (mAbs, 2021)

Target: biotinylated hIL-21 R (human, UniProt Q9HBE5, biotin (site not stated))
Assay: AlphaScreen or HTRF

Chain of biotinylated hIL-21 R (Q9HBE5 20-232): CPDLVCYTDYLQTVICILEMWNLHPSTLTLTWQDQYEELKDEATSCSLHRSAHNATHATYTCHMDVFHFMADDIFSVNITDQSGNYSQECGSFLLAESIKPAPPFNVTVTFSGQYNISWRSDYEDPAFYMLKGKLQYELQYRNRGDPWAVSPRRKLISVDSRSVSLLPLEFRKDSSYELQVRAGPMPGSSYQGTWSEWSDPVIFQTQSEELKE

binding result: binds
B1: europium cryptate-labeled MJ4-2 (antibody, V domains shown)
VH: EVQLVESGGGLVQPGRSLRLSCAASGVTFSDYHMAWVRQAPKKGLEWVATIIYDAARTYYRDSVKGRFTISRDNAKNSLYLQMNSLRAEDTAVYYCATWQTTGTPGWFAYWGQGTLVTVSS
VL: DIQMTQSPSSLSASVGDRVTITCGASQSVSISRFNLMHWYQQKPGHQPKLLIYRASNLASGVPSRFSGSGSGTDFTLTINPLQAEDFATYYCQQSRESPPTFGGGTKVEIK
